From the RNAGym collection of RNA variant scans (doi:10.1093/nar/gkz1192)

B1: CPEB3 Ribozyme (parent)
chain: UAACAGGGGGCCACAGCAGAAGCGUUCACGUCGCAGCCCCUGUCAGAUUCUGGUGAAUCUGCGAAUUCUGCUGUAUAUCUC

Variants of: B1
Assay: self-cleavage, relative activity (ratio to wild type); higher = more cleavage; in vitro, sequencing
Procedure, shortened: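 Relative activity was defined as the cleaved/total read fraction for a variant divided by the same fraction for the unmutated ribozyme. CPEB3 self-cleaving ribozyme libraries were made by rounds of error-prone PCR, barcoded, and transcribed in vitro with T7 RNA polymerase for 5 hours at 37°C, and cleavage ran through transcription plus a 15 min DNase I step before EDTA. Illumina sequencing of template-switched reverse transcripts gave the reads, and DNA sequencing mapped the barcodes. Averages come from three batches, using variants with at least 5 reads.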

For UAACAGGGGGCUACAGCAGAAGCGUUCACGUCGCAGCCCCUGUCAGAUUCUGGUGAAUCUGCGAAUUCUGCUGUAUAUCUU [C12U C81U], which self-cleavage is on record?
The self-cleavage was 1.22.

For UAACAGGGGGCUACACCAGAAGCGUUCACGUCGCAGCCCCUGUCAGAUUCUGGUGAAUCUGCGAAUUCUGCUGUAUAUCUC [C12U G16C], which self-cleavage is on record?
The self-cleavage was 0.79.

With UAACAGGGGGCUACAUCAGAAGCGUUCACGUCGCAGCCCCUGUCAGAUUCUGGUGAAUCUGCGAAUUCUGCUGUAUAUCUC [C12U G16U] as the variant, how does the self-cleavage read?
Its self-cleavage is 0.75.

With UAACAGGGGGCUACAGCAGAAGCCUUCACGUCGCAGCCCCUGUCAGAUUCUGGUGAAUCUGCGAAUUCUGCUGUAUAUCUC [C12U G24C] as the variant, how does the self-cleavage read?
Its self-cleavage is 0.16.

For UAACAGGGGGCUACAGCAGAAGCGUUCACGUCGCACCCCCUGUCAGAUUCUGGUGAAUCUGCGAAUUCUGCUGUAUAUCUC [C12U G36C], which self-cleavage is on record?
Its self-cleavage is 0.17.

Which self-cleavage does the source give for UAACAGGGGGCUACAGCAGAAGCGUUCACGUCGCAGCCCCUGUCAAAUUCUGGUGAAUCUGCGAAUUCUGCUGUAUAUCUC [C12U G46A] here?
The self-cleavage was 0.68.

With UAACAGGGGGCUACAGCAGAAGCGUUCACGUCGCAGCCCCUGUCAGAUUCUGAUGAAUCUGCGAAUUCUGCUGUAUAUCUC [C12U G53A] as the variant, how does the self-cleavage read?
Its self-cleavage is 1.18.

Which self-cleavage does the source give for UAACAGGGGGCUACAGCAGAAGCGUUCACGUCGCAGCCCCUGUCAGAUUCUGGUGAAUCUGCAAAUUCUGCUGUAUAUCUC [C12U G63A] here?
The self-cleavage was 1.39.

For UAACAGGGGGCUACAGCAGAAGCGUUCACGUCGCAGCCCCUGUCAGAUUCUGGUGAAUCUGCCAAUUCUGCUGUAUAUCUC [C12U G63C], which self-cleavage is on record?
The self-cleavage was 1.26.

With UAACAGGGGGCUACAGCAGAAGCGUUCACGUCGCAGCCCCUGUCAGAUUCUGGUGAAUCUGCGAAUUCUACUGUAUAUCUC [C12U G70A] as the variant, how does the self-cleavage read?
Its self-cleavage is 1.06.

For UAACAGGGGGCUACAGCAGAAGCGCUCACGUCGCAGCCCCUGUCAGAUUCUGGUGAAUCUGCGAAUUCUGCUGUAUAUCUC [C12U U25C], which self-cleavage is on record?
Its self-cleavage is 0.38.

Which self-cleavage does the source give for UAACAGGGGGCUACAGCAGAAGCGGUCACGUCGCAGCCCCUGUCAGAUUCUGGUGAAUCUGCGAAUUCUGCUGUAUAUCUC [C12U U25G] here?
Its self-cleavage is 0.7.

Which self-cleavage does the source give for UAACAGGGGGCUACAGCAGAAGCGUACACGUCGCAGCCCCUGUCAGAUUCUGGUGAAUCUGCGAAUUCUGCUGUAUAUCUC [C12U U26A] here?
Its self-cleavage is 1.19.

Which self-cleavage does the source give for UAACAGGGGGCUACAGCAGAAGCGUCCACGUCGCAGCCCCUGUCAGAUUCUGGUGAAUCUGCGAAUUCUGCUGUAUAUCUC [C12U U26C] here?
The self-cleavage was 0.84.

With UAACAGGGGGCUACAGCAGAAGCGUUCACGACGCAGCCCCUGUCAGAUUCUGGUGAAUCUGCGAAUUCUGCUGUAUAUCUC [C12U U31A] as the variant, how does the self-cleavage read?
The self-cleavage was 1.11.

Which self-cleavage does the source give for UAACAGGGGGCUACAGCAGAAGCGUUCACGCCGCAGCCCCUGUCAGAUUCUGGUGAAUCUGCGAAUUCUGCUGUAUAUCUC [C12U U31C] here?
Its self-cleavage is 1.28.

With UAACAGGGGGCUACAGCAGAAGCGUUCACGGCGCAGCCCCUGUCAGAUUCUGGUGAAUCUGCGAAUUCUGCUGUAUAUCUC [C12U U31G] as the variant, how does the self-cleavage read?
The self-cleavage was 0.91.

Which self-cleavage does the source give for UAACAGGGGGCUACAGCAGAAGCGUUCACGUCGCAGCCCCAGUCAGAUUCUGGUGAAUCUGCGAAUUCUGCUGUAUAUCUC [C12U U41A] here?
The self-cleavage was 0.24.

For UAACAGGGGGCUACAGCAGAAGCGUUCACGUCGCAGCCCCCGUCAGAUUCUGGUGAAUCUGCGAAUUCUGCUGUAUAUCUC [C12U U41C], which self-cleavage is on record?
The self-cleavage was 1.31.

Which self-cleavage does the source give for UAACAGGGGGCUACAGCAGAAGCGUUCACGUCGCAGCCCCGGUCAGAUUCUGGUGAAUCUGCGAAUUCUGCUGUAUAUCUC [C12U U41G] here?
Its self-cleavage is 0.28.

Which self-cleavage does the source give for UAACAGGGGGCUACAGCAGAAGCGUUCACGUCGCAGCCCCUGACAGAUUCUGGUGAAUCUGCGAAUUCUGCUGUAUAUCUC [C12U U43A] here?
Its self-cleavage is 1.24.

For UAACAGGGGGCUACAGCAGAAGCGUUCACGUCGCAGCCCCUGCCAGAUUCUGGUGAAUCUGCGAAUUCUGCUGUAUAUCUC [C12U U43C], which self-cleavage is on record?
Its self-cleavage is 1.11.

Which self-cleavage does the source give for UAACAGGGGGCUACAGCAGAAGCGUUCACGUCGCAGCCCCUGUCAGACUCUGGUGAAUCUGCGAAUUCUGCUGUAUAUCUC [C12U U48C] here?
The self-cleavage was 1.18.

For UAACAGGGGGCUACAGCAGAAGCGUUCACGUCGCAGCCCCUGUCAGAGUCUGGUGAAUCUGCGAAUUCUGCUGUAUAUCUC [C12U U48G], which self-cleavage is on record?
Its self-cleavage is 0.94.

Which self-cleavage does the source give for UAACAGGGGGCUACAGCAGAAGCGUUCACGUCGCAGCCCCUGUCAGAUCCUGGUGAAUCUGCGAAUUCUGCUGUAUAUCUC [C12U U49C] here?
The self-cleavage was 1.01.

With UAACAGGGGGCUACAGCAGAAGCGUUCACGUCGCAGCCCCUGUCAGAUUCAGGUGAAUCUGCGAAUUCUGCUGUAUAUCUC [C12U U51A] as the variant, how does the self-cleavage read?
Its self-cleavage is 1.26.

With UAACAGGGGGCUACAGCAGAAGCGUUCACGUCGCAGCCCCUGUCAGAUUCCGGUGAAUCUGCGAAUUCUGCUGUAUAUCUC [C12U U51C] as the variant, how does the self-cleavage read?
The self-cleavage was 1.25.

With UAACAGGGGGCUACAGCAGAAGCGUUCACGUCGCAGCCCCUGUCAGAUUCUGGCGAAUCUGCGAAUUCUGCUGUAUAUCUC [C12U U54C] as the variant, how does the self-cleavage read?
Its self-cleavage is 1.27.

Which self-cleavage does the source give for UAACAGGGGGCUACAGCAGAAGCGUUCACGUCGCAGCCCCUGUCAGAUUCUGGGGAAUCUGCGAAUUCUGCUGUAUAUCUC [C12U U54G] here?
The self-cleavage was 1.01.

With UAACAGGGGGCUACAGCAGAAGCGUUCACGUCGCAGCCCCUGUCAGAUUCUGGUGAAACUGCGAAUUCUGCUGUAUAUCUC [C12U U58A] as the variant, how does the self-cleavage read?
Its self-cleavage is 0.9.

For UAACAGGGGGCUACAGCAGAAGCGUUCACGUCGCAGCCCCUGUCAGAUUCUGGUGAACCUGCGAAUUCUGCUGUAUAUCUC [C12U U58C], which self-cleavage is on record?
The self-cleavage was 1.03.

Which self-cleavage does the source give for UAACAGGGGGCUACAGCAGAAGCGUUCACGUCGCAGCCCCUGUCAGAUUCUGGUGAAUCAGCGAAUUCUGCUGUAUAUCUC [C12U U60A] here?
The self-cleavage was 1.04.

For UAACAGGGGGCUACAGCAGAAGCGUUCACGUCGCAGCCCCUGUCAGAUUCUGGUGAAUCCGCGAAUUCUGCUGUAUAUCUC [C12U U60C], which self-cleavage is on record?
The self-cleavage was 0.95.

For UAACAGGGGGCUACAGCAGAAGCGUUCACGUCGCAGCCCCUGUCAGAUUCUGGUGAAUCGGCGAAUUCUGCUGUAUAUCUC [C12U U60G], which self-cleavage is on record?
Its self-cleavage is 0.46.
